This note sets out measurements from publication PMC11140114 (2024).

The target of this assay is recombinant human dynamin-related protein 1 (Drp1), isoform 1 (human, UniProt O00429 1-736). Put plainly: BLI. Background: In BLI a coated tip is dipped into the sample, and binding shifts an interference pattern.
Chain of recombinant human dynamin-related protein 1 (Drp1), isoform 1 (O00429 whole entry, canonical isoform): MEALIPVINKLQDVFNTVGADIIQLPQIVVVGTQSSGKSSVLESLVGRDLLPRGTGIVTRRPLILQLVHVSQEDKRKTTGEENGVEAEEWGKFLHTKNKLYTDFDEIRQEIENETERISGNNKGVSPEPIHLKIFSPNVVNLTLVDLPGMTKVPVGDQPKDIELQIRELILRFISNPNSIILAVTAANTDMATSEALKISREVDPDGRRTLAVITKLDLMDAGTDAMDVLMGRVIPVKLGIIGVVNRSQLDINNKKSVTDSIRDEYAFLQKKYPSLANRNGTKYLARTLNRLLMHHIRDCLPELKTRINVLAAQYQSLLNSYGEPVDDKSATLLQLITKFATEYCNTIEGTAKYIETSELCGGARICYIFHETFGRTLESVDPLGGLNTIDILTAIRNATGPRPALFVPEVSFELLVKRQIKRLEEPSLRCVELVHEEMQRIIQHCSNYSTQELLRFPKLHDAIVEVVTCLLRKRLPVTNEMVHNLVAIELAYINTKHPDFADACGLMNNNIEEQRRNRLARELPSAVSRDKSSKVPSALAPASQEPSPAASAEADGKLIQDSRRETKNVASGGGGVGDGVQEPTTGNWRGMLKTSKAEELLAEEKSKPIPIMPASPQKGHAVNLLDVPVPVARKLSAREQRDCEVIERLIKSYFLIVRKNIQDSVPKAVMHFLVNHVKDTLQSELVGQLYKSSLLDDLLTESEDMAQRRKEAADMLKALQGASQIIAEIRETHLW

B1: Drp1-specific nanobody D63 (VHH)
VHH: QVQLVESGGDLVQPGGSLKLSCAVSGVSDSLSSFYLMAWHRQAPGKQREMIADIVSGKATYADSVKGRFTISRDNAENTAYLQMNSLKPEDTAVYYCNVLIQNRSTFQSYWGQGTQVTVSS
modifications: biotinylated for BLI (site not stated); covalently immobilised on NHS-activated sepharose via primary amino groups of accessible lysines for the nanotrap
The koff is the first-order rate constant of dissociation. In the case of B1, the off-rate constant (koff) came out at 0.000227 s⁻¹.

B2: Drp1-specific nanobody D7 (VHH)
VHH: QVQLVESGGGLVQPGGSLRLSCVASGFDFSTYSMTWHRQVLGKERELVASITPGGSRTNVADSVKGRFTISRDNAKNMLYLQMDRLKPEDTGMYYCAQGGYYAEPDYWGKGTRVTVSS
modifications: biotinylated for BLI (site not stated); covalently immobilised on NHS-activated sepharose via primary amino groups of accessible lysines for the nanotrap
Consider B2, for which the koff came to 0.000117 s⁻¹.
